Measured values taken from US6534281.

Legend:
human C-peptide (human) [1] = assay: ELISA on immobilized C-peptide; labeled antibody 0.1 ug/ml, free C-peptide 0.1 ug/ml
human C-peptide (human) [2] = assay: ELISA on immobilized C-peptide; labeled antibody 0.1 ug/ml, free C-peptide 1.0 ug/ml
human proinsulin (human) [3] = biological target: human proinsulin (human) (UniProt P01308); assay: sandwich immunoassay, two-step, against C-peptide calibration; proinsulin 200 ng/ml; 9101 on particles, labeled antibody CPT-3-F11
human C-peptide (human) [4] = assay: ELISA on immobilized C-peptide; labeled antibody 10 ug/ml, free C-peptide 10 ug/ml
human proinsulin (human) [5] = biological target: human proinsulin (human) (UniProt P01308); assay: sandwich immunoassay, one-step, against C-peptide calibration; proinsulin 400 ng/ml; 9101 on particles, labeled antibody CPT-3-F11
[6] = biological target: modified C-peptide (human C-peptide having Arg-Arg bound to its N-terminal and Lys-Arg bound to its C-terminal) (human); assay: sandwich immunoassay, two-step, against C-peptide calibration; modified C-peptide 5 ng/ml; 9101 on particles, labeled antibody 9103
human C-peptide (human) [7] = assay: ELISA on immobilized C-peptide; labeled antibody 10 ug/ml, free C-peptide 0 ug/ml (reference)
human C-peptide (human) [8] = assay: ELISA on immobilized C-peptide; labeled antibody 0.0 ug/ml (blank), free C-peptide 1.0 ug/ml
human C-peptide (human) [9] = assay: ELISA on immobilized C-peptide; labeled antibody 10 ug/ml, free C-peptide 0.1 ug/ml
human C-peptide (human) [10] = assay: ELISA on immobilized C-peptide; labeled antibody 1.0 ug/ml, free C-peptide 0.1 ug/ml
human proinsulin (human) [11] = biological target: human proinsulin (human) (UniProt P01308); assay: sandwich immunoassay, two-step, against C-peptide calibration; proinsulin 400 ng/ml; 9101 on particles, labeled antibody CPT-3-F11
human C-peptide (human) [12] = assay: sandwich immunoassay, two-step; 9101 on particles, labeled antibody 9103
human proinsulin (human) [13] = biological target: human proinsulin (human) (UniProt P01308); assay: sandwich immunoassay, one-step, against C-peptide calibration; proinsulin 200 ng/ml; 9101 on particles, labeled antibody CPT-3-F11
human C-peptide (human) [14] = assay: sandwich immunoassay, two-step; 9101 on particles, labeled antibody CPT-3F-11
human proinsulin (human) [15] = biological target: human proinsulin (human) (UniProt P01308); assay: sandwich immunoassay, two-step, against C-peptide calibration; proinsulin 50 ng/ml; 9101 on particles, labeled antibody 9103
human C-peptide (human) [16] = assay: ELISA on immobilized C-peptide; labeled antibody 1.0 ug/ml, free C-peptide 0 ug/ml
human proinsulin (human) [17] = biological target: human proinsulin (human) (UniProt P01308); assay: sandwich immunoassay, one-step, against C-peptide calibration; proinsulin 50 ng/ml; 9101 on particles, labeled antibody CPT-3-F11
human C-peptide (human) [18] = assay: sandwich immunoassay, one-step; 9101 on particles, labeled antibody 9103
human C-peptide (human) [19] = assay: ELISA on immobilized C-peptide; labeled antibody 0.1 ug/ml, free C-peptide 0 ug/ml
human C-peptide (human) [20] = assay: ELISA on immobilized C-peptide; labeled antibody 0.0 ug/ml (blank), free C-peptide 0 ug/ml
[21] = biological target: modified C-peptide (human C-peptide having Arg-Arg bound to its N-terminal and Lys-Arg bound to its C-terminal) (human); assay: sandwich immunoassay, one-step, against C-peptide calibration; modified C-peptide 5 ng/ml; 9101 on particles, labeled antibody CPT-3F-11
human proinsulin (human) [22] = biological target: human proinsulin (human) (UniProt P01308); assay: sandwich immunoassay, two-step, against C-peptide calibration; proinsulin 200 ng/ml; 9101 on particles, labeled antibody 9103
human C-peptide (human) [23] = assay: ELISA on immobilized C-peptide; labeled antibody 1.0 ug/ml, free C-peptide 10 ug/ml
human C-peptide (human) [24] = assay: ELISA on immobilized C-peptide; labeled antibody 0.1 ug/ml, free C-peptide 0 ug/ml (reference)
human C-peptide (human) [25] = assay: ELISA on immobilized C-peptide; labeled antibody 10 ug/ml, free C-peptide 0 ug/ml
human C-peptide (human) [26] = assay: sandwich immunoassay, one-step; 9101 on particles, labeled antibody CPT-3F-11
human C-peptide (human) [27] = assay: ELISA on immobilized C-peptide; labeled antibody 10 ug/ml, free C-peptide 1.0 ug/ml
human C-peptide (human) [28] = assay: ELISA on immobilized C-peptide; labeled antibody 1.0 ug/ml, free C-peptide 0 ug/ml (reference)
human proinsulin (human) [29] = biological target: human proinsulin (human) (UniProt P01308); assay: sandwich immunoassay, one-step, against C-peptide calibration; proinsulin 200 ng/ml; 9101 on particles, labeled antibody 9103
human C-peptide (human) [30] = assay: ELISA on immobilized C-peptide; labeled antibody 0.0 ug/ml (blank), free C-peptide 0.1 ug/ml
human C-peptide (human) [31] = assay: ELISA on immobilized C-peptide; labeled antibody 0.1 ug/ml, free C-peptide 10 ug/ml
[32] = biological target: modified C-peptide (human C-peptide having Arg-Arg bound to its N-terminal and Lys-Arg bound to its C-terminal) (human); assay: sandwich immunoassay, one-step, against C-peptide calibration; modified C-peptide 5 ng/ml; 9101 on particles, labeled antibody 9103
human C-peptide (human) [33] = assay: ELISA on immobilized C-peptide; labeled antibody 1.0 ug/ml, free C-peptide 1.0 ug/ml
[34] = biological target: modified C-peptide (human C-peptide having Arg-Arg bound to its N-terminal and Lys-Arg bound to its C-terminal) (human); assay: sandwich immunoassay, two-step, against C-peptide calibration; modified C-peptide 5 ng/ml; 9101 on particles, labeled antibody CPT-3F-11
human proinsulin (human) [35] = biological target: human proinsulin (human) (UniProt P01308); assay: sandwich immunoassay, two-step, against C-peptide calibration; proinsulin 50 ng/ml; 9101 on particles, labeled antibody CPT-3-F11
human proinsulin (human) [36] = biological target: human proinsulin (human) (UniProt P01308); assay: sandwich immunoassay, one-step, against C-peptide calibration; proinsulin 400 ng/ml; 9101 on particles, labeled antibody 9103
human proinsulin (human) [37] = biological target: human proinsulin (human) (UniProt P01308); assay: sandwich immunoassay, one-step, against C-peptide calibration; proinsulin 50 ng/ml; 9101 on particles, labeled antibody 9103
human proinsulin (human) [38] = biological target: human proinsulin (human) (UniProt P01308); assay: sandwich immunoassay, two-step, against C-peptide calibration; proinsulin 400 ng/ml; 9101 on particles, labeled antibody 9103
human C-peptide (human) [39] = assay: ELISA on immobilized C-peptide; labeled antibody 0.0 ug/ml (blank), free C-peptide 10 ug/ml

Chain of UniProt P01308 (P01308 25-110): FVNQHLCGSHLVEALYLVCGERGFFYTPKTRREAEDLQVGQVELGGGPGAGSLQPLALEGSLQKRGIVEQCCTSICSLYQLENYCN
Chain of modified C-peptide (human C-peptide having Arg-Arg bound to its N-terminal and Lys-Arg bound to its C-terminal) (human) (peptide, as listed by the source): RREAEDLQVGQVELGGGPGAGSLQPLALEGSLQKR
Chain of human C-peptide (human) (peptide, as listed by the source): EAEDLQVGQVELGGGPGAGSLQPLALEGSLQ

Substance: anti-human C-peptide monoclonal antibody 9101 (Medix Biochemica)
- Absorbance (absorbance at 405 nm) (human C-peptide (human) [1]): 0.141
- Binding Ratio (human C-peptide (human) [1]): 11.1%
- Absorbance (absorbance at 405 nm) (human C-peptide (human) [2]): 0.013
- Binding Ratio (human C-peptide (human) [2]): 1%
- Cross-reactivity (%) to Human Proinsulin (human proinsulin (human) [3]): 11.8%
- Absorbance (absorbance at 405 nm) (human C-peptide (human) [4]): 0.001
- Binding Ratio (human C-peptide (human) [4]): 0.1%
- Cross-reactivity (%) to Human Proinsulin (human proinsulin (human) [5]): 11.7%
- Cross-reactivity (%) to Modified C-peptide [6]: < 0.7%
- Binding Ratio (human C-peptide (human) [7]): 100%
- Absorbance (absorbance at 405 nm) (human C-peptide (human) [8]): 0
- Binding Ratio (human C-peptide (human) [8]): 0%
- Absorbance (absorbance at 405 nm) (human C-peptide (human) [9]): 0.331
- Binding Ratio (human C-peptide (human) [9]): 17.1%
- Absorbance (absorbance at 405 nm) (human C-peptide (human) [10]): 0.298
- Binding Ratio (human C-peptide (human) [10]): 17.6%
- Cross-reactivity (%) to Human Proinsulin (human proinsulin (human) [11]): 12.1%
- 2S/N value (human C-peptide (human) [12]): 0.11 ng/mL
- Cross-reactivity (%) to Human Proinsulin (human proinsulin (human) [13]): 17.8%
- 2S/N value (human C-peptide (human) [14]): 0.009 ng/mL
- Cross-reactivity (%) to Human Proinsulin (human proinsulin (human) [15]): 12.8%
- Absorbance (absorbance at 405 nm) (human C-peptide (human) [16]): 1.69
- Cross-reactivity (%) to Human Proinsulin (human proinsulin (human) [17]): 19.6%
- 2S/N value (human C-peptide (human) [18]): 0.222 ng/mL
- Absorbance (absorbance at 405 nm) (human C-peptide (human) [19]): 1.26
- Absorbance (absorbance at 405 nm) (human C-peptide (human) [20]): 0
- Binding Ratio (human C-peptide (human) [20]): 0%
- Cross-reactivity (%) to Modified C-peptide [21]: 9.3%
- Cross-reactivity (%) to Human Proinsulin (human proinsulin (human) [22]): 9.8%
- Absorbance (absorbance at 405 nm) (human C-peptide (human) [23]): 0.001
- Binding Ratio (human C-peptide (human) [23]): 0%
- Binding Ratio (human C-peptide (human) [24]): 100%
- Absorbance (absorbance at 405 nm) (human C-peptide (human) [25]): 1.98
- 2S/N value (human C-peptide (human) [26]): 0.008 ng/mL
- Absorbance (absorbance at 405 nm) (human C-peptide (human) [27]): 0.051
- Binding Ratio (human C-peptide (human) [27]): 2.6%
- Binding Ratio (human C-peptide (human) [28]): 100%
- Cross-reactivity (%) to Human Proinsulin (human proinsulin (human) [29]): 18.1%
- Absorbance (absorbance at 405 nm) (human C-peptide (human) [30]): 0
- Binding Ratio (human C-peptide (human) [30]): 0%
- Absorbance (absorbance at 405 nm) (human C-peptide (human) [31]): 0
- Binding Ratio (human C-peptide (human) [31]): 0%
- Cross-reactivity (%) to Modified C-peptide [32]: < 0.5%
- Absorbance (absorbance at 405 nm) (human C-peptide (human) [33]): 0.042
- Binding Ratio (human C-peptide (human) [33]): 2.5%
- Cross-reactivity (%) to Modified C-peptide [34]: 1.7%
- Cross-reactivity (%) to Human Proinsulin (human proinsulin (human) [35]): 10.7%
- Cross-reactivity (%) to Human Proinsulin (human proinsulin (human) [36]): > 15%
- Cross-reactivity (%) to Human Proinsulin (human proinsulin (human) [37]): 19.7%
- Cross-reactivity (%) to Human Proinsulin (human proinsulin (human) [38]): 8.4%
- Absorbance (absorbance at 405 nm) (human C-peptide (human) [39]): 0
- Binding Ratio (human C-peptide (human) [39]): 0%
